Assay results taken from patent publication US6218168A, “Process for preparing O-acetylserine, L-cysteine and L-cysteine-related products” (Consortium fur elektrochemische Inudstrie GmbH, priority 1995, dated 2001).

B1: cysEIV: double mutant Ala237->Val237, Gly238->Ser238 (protein, UniProt P0A9D4 1-273, looked up, variant A237V G238S)
Serine acetyltransferase: MSCEELEIVWNNIKAEARTLADCEPMLASFYHATLLKHENLGSALSYMLANKLSSPIMPAIAIREVVEEAYAADPEMIASAACDIQAVRTRDPAVDKYSTPLLYLKGFHALQAYRIGHWLWNQGRRALAIFLQNQVSVTFQVDIHPAAKIGRGIMLDHATGIVVGETAVIENDVSILQSVTLGGTGKSGGDRHPKIREGVMIGAGAKILGNIEVGRGAKIGAGSVVLQPVPPHTTAVSVPARIVGKPDSDKPSMDMDQHFNGINHTFEYGDGI

Experiments:
[1] = target: wild-type form of serine acetyltransferase; conditions: 0.1 mM acetyl-coenzyme A and 1 mM L-serine; competitive; read-out: inhibitor constant Ki; cited from earlier work
[2] = target: T1, serine acetyltransferase of cysteine-prototrophic revertant (Escherichia coli, UniProt P0A9D4, M256I); conditions: versus wild-type; cited from earlier work
T1 construct: host or cells: cysteine-prototrophic revertant of a cysteine-auxotrophic strain mutagenized with ethyl methanesulfonate (Denk and Bock 1987)

[3] = target: T1, serine acetyltransferase of cysteine-prototrophic revertant; test: Literature: end product inhibition of serine acetyltransferase from a cysteine-prototrophic revertant; assay type: biochemical
Protocol: According to the literature reference mentioned, the feedback resistance of this mutant is elevated 10-fold. Consequently, the Ki of this mutant is approx. 0.01 mM, when comparison is made with the wild-type form.

[4] = target: serine acetyltransferase; test: Serine acetyltransferase enzyme activity test with and without L-cysteine (inhibitor constant Ki, specific activity); assay type: biochemical, E. coli; conditions: for Ki: inhibitor L-cysteine
Excerpt: Any method which enables the activity of the serine acetyltransferase to be determined in the presence of cysteine can be used for determining the cysteine sensitivity of this enzyme. For example, the serine acetyltransferase activity can be determined using the method described by Kredich and Tomkins, J. Biol. Chem. 241: 4955-4965 (1966). In this test, the enzyme test mixture contains the substrate, L-serine, and the cofactor, acetyl-coenzyme A. The reaction is started by adding enzyme and monitored, in a spectro photometer, by observing the decrease in absorption at 232 nm which is elicited by the cleavage of the thioester bond in the acetyl-coenzyme A.
The above-described enzyme test is suitable for determining the cysteine sensitivity of any serine acetyltransferase enzyme, including the enzymes which have a modified carboxyl terminus. Inhibition of the serine acetyltransferase activity is tested in the presence of differing concentrations of L-cysteine in the reaction mixture. The catalytic activity of the different serine acetyltransferase enzymes is determined in the presence and absence of L-cysteine, and the inhibitor constant, Ki, is ascertained from this (Kredich and Tomkins, J. Biol. Chem., 241, 4955-4965 (1966)).
In order to investigate the biochemical basis of the cysteine secretion of the revertants, the activity of the serine acetyltransferase was determined in vitro, and the ability of cysteine to inhibit the enzyme was measured. For the determination, use was made of S30 extracts (cell homogenates centrifuged at 30,000 g and 4° C. for 20 minutes) of the selected revertants, the starting strains and the comparison strain, E. coli W3110 (ATTC 27325).
The biochemical parameters such as enzyme activity and inhibitor constant, Ki, were determined in an analogous manner to that described in Example 1.
The plasmids resulting from this cloning were designated pACYC184/cysE-Del in accordance with the extent of their deletion (cf. FIG. 9 for the plasmid map). Determination of the enzymic activity and the inhibitor constant, Ki, and also the cross-feeding test, were carried out in analogy with the description in Example 1. DNA sequence analysis was used to confirm that the deletions had been correctly introduced.
Determination of the enzymic activity and of the inhibitor constant Ki, and also the cross-feeding test, were carried out in analogy with the description in Example 1.

[5] = tested on: JM15attλ::cysE strains; test: Cysteine production in 1 L fermenter, chromosomally encoded cysE alleles; assay type: cell-based, E. coli; conditions: single chromosomal copy
Protocol: For the purpose of being integrated into the chromosomal attachment site (attλ), the cysE alleles cysEIV, cysEX and cysEXI were cloned into the plasmid pRS551 (Simons et al., 1987, Gene 53: 85-96). For this, each cysE allele was amplified by PCR from the corresponding cysE plasmid. The oligonucleotides which were used, i.e. cysE-fwl and cysE-revl, are described in Example 1. The amplification was carried out as described in Example 3. The resulting fragments were cleaved with EcoRI/BamHI, purified through an agarose gel and ligated into vector pRS551 which had been cleaved with EcoRI and BamHI. This afforded the vector pRS551-based recombinant plasmids pRScysEIV, X and XI.
A heterogeneous lambda lysate, which contained recombinant cysE allele-carrying λRS45 derivatives in addition to λRS45 phages, was produced in vivo by homologous recombination by means of preparing a plate lysate on a pRScysE-carrying recA^+ strain (e.g. YMC9, ATCC 3397) using the λRS45 phage (Simons et al., 1987, Gene 53: 85-96).
The cysE strain JM15, which was infected with the heterogeneous lambda lysate and subsequently plated on kanamycin-containing (25 mg/L) LB plates, was used for selecting for the recombinant RS45 derivatives. The lysogenic, kanamycin-resistant clones which were obtained were then tested for their ability to grow on minimal medium plates without cysteine. A clone which was in each case cysteine-prototrophic was selected and used for preparing a homogeneous cysE λ lysate (by means of UV induction, Simons et al., 1987, Gene 53: 85-96).
The JM15 stain was infected with these homogeneous cysE λ lysates which were obtained in each case. The resulting JM15attλ::cysE strains were cultured as described in Example 6. Instead of tetracycline, the respective media in each case contained 25 mg of kanamycin per L as the selection agent.

[6] = tested on: production strain JM15; test: Cysteine production in 1 L fermenter, JM15 with plasmid-encoded cysE alleles; assay type: cell-based, E. coli; conditions: 48 h, JM15 transformed with plasmid
Protocol: Influence of different, plasmid-encoded cysE alleles on the production of L-cysteine or products derived from L-cysteine in a 1 L fermenter using the host strain JM15 20 mL of LB medium (1% tryptone, 0.5% yeast extract, 0.5% NaCl) contained in a 100 mL Erlenmeyer flask were inoculated with a single colony of the production strain JM15 (CGSC#5042) which had been transformed with the respective cysE plasmid.
After having been incubated for 7 hours in a bacterial shaker (30° C., 150 rpm), the respective preliminary cultures were transferred to 100 mL of SM1 medium. The SM1 medium contained 5 g/L glucose, 5 mg/L vitamin B1, 3 g/l KH2 PO4, 12 g/L K2 HPO4, 0.3 g/L MgSO4×7 H2 O, 0.1 g/L NaCl, 5 g/L (NH4)2 SO4, 14.7 mg/L CaCl2×2 H2 O, 2 mg/L FeSO4×2 H2 O, 1 g/L Na3 citrate×2 H2 O, 1 ml/L trace element solution and 25 mg/L tetracycline. The trace element solution was composed of 0.15 g/L Na2 MoO4×2 H2 O, 2.5 g/L H3 BO3, 0.7 g/L CoCl2×6 H2 O, 0.25 g/L CuSO4×5 H2 O, 1.6 g/L MnCl2×4 H2 O and 0.3 g/L ZnSO4×7 H2 O. The cultures were shaken in 1 L Erlenmeyer flasks at 30° C. and at 150 rpm for 17 h. After this incubation, the OD600 was between 4 and 5. The subsequent fermentation was carried out in Braun-Melsungen BIOSTAT M research fermenters. A culturing vessel having a total volume of 2 L was used.
The fermentation medium contained 15 g/L glucose, 5 g/L NaCl, 0.3 g/L MgSO4×7 H2 O, 15 mg/L CaCl2×2 H2 O, 75 mg/L FeSO4×7 H2 O, 1 g/L Na3 citrate×2 H2 O, 1.5 g/L KH2 PO4, 1 mL of trace element solution (see above), 5 mg/L vitamin B1, 2.5 g/L yeast extract (Difco), 2.5 g/L tryptone (Difco) and 25 mg/L tetracycline.
The glucose concentration in the fermenter was initially adjusted to a value of 15 g/L by pumping in a 700 g/L (w/v) (sterilized) glucose solution, and the pH was adjusted to 7.0 by pumping in a 25% NH4 OH solution. After an OD600 of 10 had been reached, 300 mg per hour were supplied from a sterile 100 g/L (w/v) stock solution of thiosulfate. 100 mL of preliminary culture were pumped into the fermenter vessel for the inoculation. The starting volume was approximately 1 L. The cultures were initially stirred at 400 rpm and aerated with 1.5 vvm of compressed air which had been sterilized by passing through a sterile filter. The fermentation was carried out at a temperature of 30° C.
The pH was maintained at a value of 7.0 by means of automatic correction with 25% NH4 OH. The oxygen saturation in the fermentation broth had at no time during the fermentation to fall below 20%; the stirring speed was used to ensure this. The glucose content of the nutrient solution, the optical density and the cysteine content were determined at two- to three-hourly intervals. The glucose content was determined enzymically using a glucose analyzer from YSI. The concentration of the glucose was adjusted to between 10 and 20 g/L by means of continuously feeding in this compound.
The content of cysteine in the medium was determined […] from the cell-free super-natant of the sample using the method of Gaitonde, M. K. (1967), Biochem. J. 104, 627-633.
The fermentation was terminated after 44-50 h.

T1 sequence (P0A9D4 whole entry M256I): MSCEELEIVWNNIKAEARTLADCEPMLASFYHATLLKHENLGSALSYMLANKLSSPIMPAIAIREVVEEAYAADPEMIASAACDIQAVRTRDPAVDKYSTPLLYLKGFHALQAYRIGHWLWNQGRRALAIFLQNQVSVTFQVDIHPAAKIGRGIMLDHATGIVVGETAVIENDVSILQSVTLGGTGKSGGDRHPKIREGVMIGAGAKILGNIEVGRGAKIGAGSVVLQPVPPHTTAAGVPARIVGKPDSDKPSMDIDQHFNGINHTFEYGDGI

Row | Molecule | Ki [1] | feedback resistance elevated [2] | Ki [3] | Ki ([4]; Table 1a, 1 mM L-serine, 0.1 mM acetyl-CoA) | spec. act. ([4]; Table 1a, serine acetyltransferase activity) | Ki ([4]; Table 4, alleles from site-specific mutagenesis) | yields of cysteine [5] | Cysteine yield [6]
1 | N[C@@H](CS)C(=O)O [L-cysteine] | 1.1 µM | 10 fold | ~10 µM | – | – | – | – | –
2 | B1 | – | – | – | 40 µM | 0.170 µmol/min/mg | 40 µM | 0.5 g/L | 1.6 g/L
